# Assay results published in PMC11008599.
# Legend:
# [1] = target: K8-K57, SNV-N frameworks (bovine (knob domain)); test: SPR; […], Biacore 8K+; […]; HBS-EP+ (10 mM HEPES pH 7.4, 150 mM NaCl, 3 mM EDTA, 0.005% P20); 1:1 binding model
# [2] = target: aIL2_1-K8 (G4P linker), SNV-N frameworks (bovine (knob domain)); test: as above
# [3] = target: K8-K57, BECN1 frameworks (bovine (knob domain)); test: SPR; multicycle kinetics, Biacore 8K+; knob domain constructs immobilised on a CM5 chip via amine coupling, C5 in solution; HBS-EP+ (10 mM HEPES pH 7.4, 150 mM NaCl, 3 mM EDTA, 0.005% P20); 1:1 binding model
# [4] = target: aIL2_1-K8 (G4P linker), BECN1 frameworks (bovine (knob domain)); test: as above
# [5] = target: aIL2_1-K8 (G4P linker), SNV-N frameworks (bovine (knob domain)); test: SPR; […], Biacore 8K+; […]; HBS-EP+; […]
# [6] = target: aIL2_1-aIL2_1, SNV-N frameworks (bovine (knob domain)); test: SPR; […], Biacore 8K+; […]; HBS-EP+; […]
# [7] = target: aIL2_1-aIL2_1-K8, SNV-N frameworks (bovine (knob domain)); test: SPR; […], Biacore 8K+; […]; HBS-EP+; […]
# [8] = target: bispecific/bivalent aIL2_1-aIL2_1-K8 fusion, SNV-N stalks, GGGGP linkers; test: SPR; bridging SPR assay: immobilised C5, binding cycles of the knob domain fusions, then a binding cycle of IL-2
# [9] = target: aIL2_1-K8 (G4P linker), BECN1 frameworks (bovine (knob domain)); test: SPR; multicycle kinetics, Biacore 8K+; knob domain constructs immobilised on a CM5 chip via amine coupling, IL-2 in solution; HBS-EP+; two-state binding model, only the fastest association and the slowest dissociation rate constants reported
# [10] = target: aIL2_1-aIL2_1, BECN1 frameworks (bovine (knob domain)); test: as above
# [11] = target: aIL2_1-aIL2_1-K8, BECN1 frameworks (bovine (knob domain)); test: as above
# aIL2_1-aIL2_1-K8, BECN1 frameworks (bovine (knob domain)), sequence (main, as listed by the source): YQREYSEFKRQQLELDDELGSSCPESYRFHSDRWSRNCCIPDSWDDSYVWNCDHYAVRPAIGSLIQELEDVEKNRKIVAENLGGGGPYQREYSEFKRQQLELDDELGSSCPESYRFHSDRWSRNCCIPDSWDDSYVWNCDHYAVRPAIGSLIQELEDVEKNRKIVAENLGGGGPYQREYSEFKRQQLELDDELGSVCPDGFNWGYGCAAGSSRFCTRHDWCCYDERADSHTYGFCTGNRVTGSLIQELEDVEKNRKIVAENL
# human IL-2, sequence (P60568 21-153): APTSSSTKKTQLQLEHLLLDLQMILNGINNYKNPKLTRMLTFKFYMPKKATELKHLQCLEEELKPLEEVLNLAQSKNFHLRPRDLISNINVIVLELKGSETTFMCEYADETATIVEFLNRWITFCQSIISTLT
# aIL2_1-K8 (G4P linker), BECN1 frameworks (bovine (knob domain)), sequence (main, as listed by the source): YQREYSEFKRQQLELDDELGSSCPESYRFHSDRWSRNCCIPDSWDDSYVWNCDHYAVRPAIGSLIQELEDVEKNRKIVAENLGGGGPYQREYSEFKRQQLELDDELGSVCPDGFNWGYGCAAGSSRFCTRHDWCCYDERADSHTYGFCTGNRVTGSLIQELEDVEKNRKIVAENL
# aIL2_1-aIL2_1, BECN1 frameworks (bovine (knob domain)), sequence (main, as listed by the source): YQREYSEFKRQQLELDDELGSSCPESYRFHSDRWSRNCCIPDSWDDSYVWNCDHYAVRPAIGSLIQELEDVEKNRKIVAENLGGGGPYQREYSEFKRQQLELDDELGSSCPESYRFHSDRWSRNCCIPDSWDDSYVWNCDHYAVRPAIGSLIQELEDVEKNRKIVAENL
Substance,Kd [1],koff [1],kon [1],Kd [2],koff [2],kon [2],Kd [3],koff [3],kon [3],Kd [4],koff [4],kon [4],Kd [5],Kd [6],Kd [7],increase in signal upon IL-2 binding [8],Kd [9],Kd [10],Kd [11]
complement component 5 (natural protein),1.18 nM,1.83e-05 s⁻¹,15400 M⁻¹ s⁻¹,26 nM,0.00025 s⁻¹,9700 M⁻¹ s⁻¹,0.9 nM,2.8e-05 s⁻¹,31000 M⁻¹ s⁻¹,29 nM,0.00026 s⁻¹,8800 M⁻¹ s⁻¹,,,,,,,
human IL-2 (from UniProt P60568 21-153) (natural protein),,,,,,,,,,,,,9 nM,5.7 nM,5.5 nM,26 RU,10 nM,7.5 nM,7.1 nM
